These results are taken from patent US20220017611A1.

Positions count from the first letter of the chain named.

This assay has as its target Tau RD (MTBD) P301S fused to CFP or YFP, in HEK293 Tau RD P301S FRET Biosensor cells (UniProt P10636). The experiment in a line: cell-based or functional assay.

Sequence of Tau RD (MTBD) P301S fused to CFP or YFP, in HEK293 Tau RD P301S FRET Biosensor cells (P10636 561-689 P618S): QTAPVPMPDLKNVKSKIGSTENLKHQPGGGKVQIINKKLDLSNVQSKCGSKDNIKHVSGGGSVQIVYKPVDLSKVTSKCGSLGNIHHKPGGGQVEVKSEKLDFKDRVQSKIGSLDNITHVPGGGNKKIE

B1: mCherry-VHH E4-1 (VHH, not shown: large carriers)
VHH: EVQLQASGGGFVQPGGSLRLSCAASGATSTFDGMGWFRQAPGKEREFVSAISYEQGSYTYYADSVKGRFTISRDNSKNTVYLQMNSLRAEDTATYYCAPAYEGDLYAFDSYWGQGTQVTVSS
B1 registered a mCherry-gated FRET positive cells after MTBD seeds of 15.2% and a seeding inhibition against mCherry-VHH F8-2 of 7.8%.

B2: mCherry-VHH Mut5 (VHH, not shown: large carriers)
VHH: B1 VHH with G10V, P14S, T79M, T94S, W112G
B2: the mCherry-gated FRET positive cells after MTBD seeds was found to be 12.1% and the seeding inhibition stood at 27%.

B3: mCherry-VHH Z70 (VHH, not shown: large carriers)
VHH: B1 VHH with G10V, P14S, T79M, W112G
In the case of B3, the mCherry-gated FRET positive cells after MTBD seeds amounted to 9.9% and the seeding inhibition against mCherry-VHH F8-2 was 40%.

B4: mCherry-VHH Mut20 (VHH, not shown: large carriers)
VHH: B1 VHH with G10V, P14S, R45K, T79M, W112G, G113E
For the molecule B4, the mCherry-gated FRET positive cells after MTBD seeds was found to be 11.2% and the seeding inhibition amounted to 32%.

B5: mCherry-VHH Mut1 (VHH, not shown: large carriers)
VHH: B1 VHH with G10V, P14S, T79M, W112G, G113E
B5 registered a mCherry-gated FRET positive cells after MTBD seeds of 8.2% and a seeding inhibition of 50%.

B6: mCherry-VHH Mut3 (VHH, not shown: large carriers)
VHH: B1 VHH with G10V, P14S, R45K, T79M, W112G
Take B6: the mCherry-gated FRET positive cells after MTBD seeds came out at 8.2% and the seeding inhibition was found to be 50%.

B7: mCherry-VHH Mut14 (VHH, not shown: large carriers)
VHH: B1 VHH with G10V, P14S, T30I, E54G, T79M, W112G, G113E
As to B7, the mCherry-gated FRET positive cells after MTBD seeds stood at 12.7% and the seeding inhibition came to 23%.

B8: mCherry-VHH Mut12 (VHH, not shown: large carriers)
VHH: AEVQLQASGGVFVQSGGSLRLCCAASGATSTFDGMGWFRQAPGKEREFVSAISYEQGSYTYYADSVKGRFTISRDNSKNMVYLQMNSLRAEDTATYYCAPAYEGDLYAFDSYGEQGTQVTVSS
The molecule B8 returned a mCherry-gated FRET positive cells after MTBD seeds of 8.5% and a seeding inhibition of 48%.
